Assays:
Type in all cases: biochemical, Oryza sativa
purified protein = substrate: N[C@@H](CS)C(=O)O; experiment: purified protein; conditions: L-cysteine desulfhydrase (CDes) reaction, method section: 100 mM Tris/HCl pH 8.5, 2.5 mM DTT, 37 °C
[1] = substrate: CC(=O)OC[C@H](N)C(=O)O; experiment: OAS-TL activity assay, Lineweaver-Burk; conditions: OAS-TL (cysteine synthase) side reaction; co-substrate Na2S
[2] = substrate: S; experiment: OAS-TL activity assay, Lineweaver-Burk; conditions: OAS-TL (cysteine synthase) side reaction; co-substrate OAS

B1: OsLCD1 (Oryza sativa Japonica Group) (protein)
chain: MASIPPDDDAAAAAAAGAAENGYGNGKGNGNGPAPRPPPAKRPRSVISAAQIRAEFEHHEAGVARVNNGSFGCCPSSLLDAQARWQRLFIAQPDDFYFHALQPGLRRSRAAVAGLVNAGDVAEVSLVDNATTAAAIVLQHAAWSFAEGRFSRGDAVLMLHYAYGAVKKSIHAYVARAGATVVEVPLPFPVASADAIIAEFRAALDVAKAGGRKVRLAVIDHITSMPSVVIPVKELVAICREEGVDKVFIDAAHSIGQVPVDVRDIGADFYTSNLHKWFFCPPAVAFLHTRKDDPIASQLHHPVVSHEYGNGLPMESGWIGTRDYSAQLVVPESIDFVNRFEGGIEGIRSRNHEKVIEMGKMLAEAWGTFLGTPPELCGSMVMVGLPGCLGVESDDDVMRMRTMLRKDFMVEVPIYYNSRRVEAQEMAKDKNGDAVTGYVRISHQVYNVTEDYEKLRDAVNKLVADGFTSSKLRPSQKQETMA
notes: full length, 482 residues, 55 kDa, N-terminal 6xHis tag (pET-28a(+)), E. coli Rosetta (DE3), Ni-NTA purified
- Km (purified protein): 0.15 ± 0.02 mM
- Km [1]: 3.76 ± 0.41 mM
- Km [2]: 8.13 ± 0.72 mM

From publication PMC8624084, “Persulfidation of Nitrate Reductase 2 Is Involved in L-Cysteine Desulfhydrase-Regulated Rice Drought Tolerance” (International Journal of Molecular Sciences, 2021)
